Experimental data reported in FireProtDB (doi:10.1021/bi061295h).
Where “and” joins values, the source holds several entries; their conditions need not be identical. Identical values can stand only once.

B1: Alpha-lactalbumin wild type, P00711 (protein)
chain: MMSFVSLLLVGILFHATQAEQLTKCEVFRELKDLKGYGGVSLPEWVCTTFHTSGYDTQAIVQNNDSTEYGLFQINNKIWCKDDQNPHSSNICNISCDKFLDDDLTDDIMCVKKILDKVGINYWLAHKALCSEKLDQWLCEKL
B2: Fatty acid-binding protein, intestinal wild type, P02693 (protein)
chain: MAFDGTWKVDRNENYEKFMEKMGINVVKRKLGAHDNLKLTITQEGNKFTVKESSNFRNIDVVFELGVDFAYSLADGTELTGTWTMEGNKLVGKFKRVDNGKELIAVREISGNELIQTYTYEGVEAKRIFKKE

Details: 25 °C, reversible: Yes, whole UniProt chain shown
[1] = Bos taurus, pH 7.4, GdnHCl, CD, Tris 20 mM
[2] = Rattus norvegicus, pH 7.5, Urea, Fluorescence, Sodium phosphate 20 mM, KCl 100 mM

Row | Protein | denaturant m value [1] [kcal/mol/M] | unfolding free energy [1] [kcal/mol] | denaturant m value (Bos taurus, pH 7.4, GdnHCl, SUPREX, Sodium phosphate 20 mM) [kcal/mol/M] | denaturant m value [2] [kcal/mol/M] | unfolding free energy [2] [kcal/mol] | denaturant m value (Rattus norvegicus, pH 7.5, Urea, SUPREX, Sodium phosphate 20 mM, KCl 100 mM)
1 | B1 | 1.4 | 3 | 1.6 |  |  | 
2 | B2 |  |  |  | 1.7 | 9.2 | 1 kcal/mol/M and 2.7 kcal/mol/M and 0.9 kcal/mol/M
